Test results: paper PMC9210659

Biological target: C16-Pks13(S1533A) (Pks13(S1533A) loaded with a C16 chain on the AT catalytic serine) (Mycobacterium tuberculosis H37Rv) (UniProt I6X8D2)
Test: SEC + other: SAXS

## C16-Pks13(S1533A) (Pks13(S1533A) loaded with a C16 chain on the AT catalytic serine) (from UniProt I6X8D2 1-1733) (enzyme)
  percent dimer: 60%
  stoichiometry N: 2
